From publication PMC8259413

Target: DNA polymerase beta (Pol β) (rat, UniProt P06766 1-335)
Experiment: NMR chemical shift titration

B1: 20-mer single-nucleotide gapped DNA (templating G) (dsDNA)
DNA 1: CGACCGACGGCGCATCAGCC
DNA 2: GGCTGATGCGC
DNA 3: GTCGGTCG
modifications: 5'-phosphate on downstream strand
- binding result: binds
